Results: patent US12545899B2, “Luciferase enzymes for use with thermostable luciferins in bioluminescent assays” (Promega Corporation, priority 2018, dated 2026)

Columns and labels:
[1] = Activity of ATG-2889 variants (positions 344/396) with D/L-luciferin; format: biochemical; conditions: substrate D/L-luciferin
From the text: (§1) Additionally, several other amino acid substitutions, including those not considered to be conservative or semi-conservative, were made to ATG-2889, as shown below in Table 2.

[2] = Activity of ATG-2889 variants (positions 344/396) with CS0333; format: biochemical; conditions: substrate CS0333
From the text: as §1

[3] = E. coli lysate activity of position 244/339 variants with CS0333 (FIG. 7); format: biochemical; conditions: E. coli lysates; Detection Reagent; 0.5 mM substrate; 1 mM ATP; 3 mins
Method: FIG. 7 includes a representative graph assessing the activities of luciferase enzyme variants with amino acid substitutions at positions 244 and 339 of SEQ ID NO: 1 in the presence of 5,5-disubstituted luciferin analog substrate. Assays were prepared by combining overnight E. coli culture expressing enzymes with Detection Reagent+ATP+substrate (luciferin analog compounds CS0280, CS0333, CS0510, and CS0326), and luminescence was read at 3 mins. Reagent compositions included 50 μl lysate of the thermostable luciferase variant of Ppe variant of SEQ ID NO: 1, 0.5 mM substrate, and 1 mM ATP.

[4] = Kinetic analysis of ATG-2889 with CS0333 versus luciferin (FIG. 16B); format: biochemical
Method: FIG. 16B provides similar results. […] The composition was incubated for 3 mins prior to quantification.

[5] = Effect of V300G, L305F, S306P on activity with CS0333 (FIG. 13); format: biochemical; conditions: 1 mM ATP; 100 nM to 1 mM substrate; Bright-Glo buffer
Method: FIG. 13 includes a representative graph of the effects of amino acid substitutions V300G, L305F, and S306P on enzyme activity with the CS0333 analog. Reagent compositions included […]+1 mM ATP+100 nM to 1 mM substrate in Bright-Glo™ buffer.

[6] = Vmax and Km of Ppe variant and ATG-3707 with D/L-luciferin; format: biochemical
[7] = Differential scanning fluorimetry (DSF) analysis; format: physicochemical; conditions: Table 9A
In short: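 Enzymes mixed with Sypro Orange at 5× final, heated 30–95° C at 1° C per minute with fluorescence read every 60 s. Storage buffer 50 mM HEPES pH 7.5, 100 mM NaCl, 2 mM EDTA, or for luciferase variants 20 mM HEPES pH 7.5, 200 mM NaCl, 1 mM EDTA; per-minute fluorescence change plotted against temperature.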

[8] = Kinetic analysis of Ppe variant, ATG-3707, ATG-4117 with D/L-luciferin; format: biochemical
Method: (§2) Kinetic tests of these luciferase enzyme variants were also conducted. […] Reagent compositions included 0.005 mg/ml luciferase enzyme variant+1 mM ATP, and 0.1 fM to 1 mM substrate in Bright-Glo™ (BG) or Detection Reagent (DR) buffers. The composition was incubated for 3 mins and read on GloMax® Multi+platform.
(§3) Table 8 below includes representative results of kinetic analysis of the thermostable luciferase variants of Ppe (SEQ ID NO: 1), ATG-3707, and ATG-4117. The Ppe variant (SEQ ID NO: 1) was tested with D/L-luciferin, and ATG-3707, and ATG-4117 were tested with CS0280 and CS0333.

[9] = Kinetic analysis of thermostable variants with D/L-luciferin (Table 10); format: biochemical
Method: Experiments were also conducted to evaluate the activities (i.e. Vmax and Km) of the various thermostable luciferase variants of Ppe (SEQ ID NO: 1) described above.
(§4) Tables 10 and 11 include representative results of kinetic analysis of the thermostable variants with D/L luciferin, CS0333, and CS0280. […] MK0135 and MK0137 have amino acid substitutions that improve thermostability relative to MK0133 and MK0134, respectively, while retaining activity on the luciferin analogs CS0333 and CS0280.

[10] = Luminescence at 1 mM D/L-luciferin (Table 11); format: biochemical; conditions: 1 mM substrate, 1 mM ATP
From the text: as §4

[11] = Luminescence at 1 mM CS0333 (Table 11); format: biochemical; conditions: 1 mM substrate, 1 mM ATP
From the text: as §4

[12] = Luminescence at 1 mM CS0280 (Table 11); format: biochemical; conditions: 1 mM substrate, 1 mM ATP
From the text: as §4

[13] = Kinetic analysis of thermostable variants with D/L-luciferin (Tables 13, 14); format: biochemical; conditions: 2 mM ATP
[14] = Vmax and Km of ATG-3707 with CS0333; format: biochemical
[15] = Luminescence of ATG-3707 variants (second round epPCR) with CS0333; format: biochemical
Method: Reagent compositions included CS0333 diluted from 20 mM to 2 mM in reaction buffer with 2 mM ATP. […] Reactions were incubated at 25° C. for 3 min, and luminescence was read and then normalized to ATG-3707 activity tested in parallel.

[16] = Kinetic analysis of ATG-3707 variants with CS0333; format: biochemical
Method: Additionally, Table 5 (below) includes kinetic analysis of the ATG-3707 variants identified above. Reagent compositions included CS0333 serially diluted 10-fold from 1 mM to 10 fM in reaction buffer with 2 mM ATP. […] Reactions were incubated at 25° C. for 3 min, and luminescence was read and then normalized to ATG-3707 activity tested in parallel. […] Since C2157D2 was selected for improved brightness in CellTiterGlo® buffer over ATG-3707, it still had beneficial properties.

[17] = Kinetic analysis of ATG-3707, ATG-4117 with CS0280; format: biochemical
Method: as §2, §3

[18] = Kinetic analysis of ATG-3707, ATG-4117 with CS0333; format: biochemical
Method: as §2, §3

[19] = Activity and kinetics of ATG-3707 with CS0333 (FIGS. 19B-19D); format: biochemical
Method: Reagent compositions included 0.005 mg/ml enzyme in 1×TBS+0.5% Prionex, 1 mM substrate in buffer, and 1 mM ATP.

B1: ATG2889: SEQ ID NO: 12; H244W+T344A+I396K (protein)
chain: MADKNILYGPEPFYPLEDGTAGEQMFDALSRYAAIPGCIALTNAHTKENVLYEEFLKLSCRLAESFKKYGLKQNDTIAVCSENSLQFFLPVIASLYLGIIVAPVNDKYIERELIHSLGIVKPRIVFCSKNTFQKVLNVKSKLKSIETIIILDLNEDLGGYQCLNNFISQNSDSNLDVKKFKPYSFNRDDQVASIMFSSGTTGLPKGVMLTHKNIVARFSIAKDPTFGNAINPTSAILTVIPFHWGFGMMTTLGYFTCGFRVVLMHTFEEKLFLQSLQDYKVESTLLVPTLMAFLAKSALVEKYDLSHLKEIASGGAPLSKEIGEMVKKRFKLNFVRQGYGLTEATSAVLITPKGDAKPGSTGKIVPLHAVKVVDPTTGKILGPNEPGELYFKGPMKMKGYYNNEEATKAIIDNDGWLRSGDIAYYDNDGHFYIVDRLKSLIKYKGYQVAPAEIEGILLQHPYIVDAGVTGIPDEAAGELPAAGVVVQTGKYLNEQIVQDYVASQVSTAKWLRGGVKFLDEIPKGSTGKIDRKVLRQMLEKHTNGHHHHHHHH
- activity with D/L-luciferin [1]: 5507240
- activity with CS0333 [2]: 679219
- activity above background with CS0333 [3]: approximately 285 fold
- Vmax with CS0333 lower than the Vmax for luciferin ([4]; Bright-Glo Buffer): 23.1 fold
- Vmax with CS0333 lower than the Vmax for luciferin ([4]; Detection Reagent buffer): 42.9 fold
- activity with CS0333 relative to Ppe variant (SEQ ID NO: 1) [5]: improved activity

B2: Ppe variant: thermostable luciferase variant of Photuris pennsylvanica (Ppe) of SEQ ID NO: 1 (protein)
chain: MADKNILYGPEPFYPLEDGTAGEQMFDALSRYAAIPGCIALTNAHTKENVLYEEFLKLSCRLAESFKKYGLKQNDTIAVCSENSLQFFLPVIASLYLGIIVAPVNDKYIERELIHSLGIVKPRIVFCSKNTFQKVLNVKSKLKSIETIIILDLNEDLGGYQCLNNFISQNSDSNLDVKKFKPYSFNRDDQVASIMFSSGTTGLPKGVMLTHKNIVARFSIAKDPTFGNAINPTSAILTVIPFHHGFGMMTTLGYFTCGFRVVLMHTFEEKLFLQSLQDYKVESTLLVPTLMAFLAKSALCEKYDLSHLKEIASGGAPLSKEIGEMVKKRFKLNFVRQGYGLTETTSAVLITPKGDAKPGSTGKIVPLHAVKVVDPTTGKILGPNEPGELYFKGPMIMKGYYNNEEATKAIIDNDGWLRSGDIAYYDNDGHFYIVDRLKSLIKYKGYQVAPAEIEGILLQHPYIVDAGVTGIPDEAAGELPAAGVVVQTGKYLNEQIVQDYVASQVSTAKWLRGGVKFLDEIPKGSTGKIDRKVLRQMLEKHTNGHHHHHHHH
- activity with D/L-luciferin [1]: 7118320
- activity with CS0333 [2]: 178
- Km ([6]; BrightGlo Buffer): 0.315 µM
- Vmax (RLU) ([6]; BrightGlo Buffer): 23,319,814 RLU
- Km ([6]; CellTiterGlo buffer): 1060 µM
- Vmax (RLU) ([6]; CellTiterGlo buffer): 5,771,822 RLU
- Km ([6]; Detection Reagent Buffer): 10.8 µM
- Vmax (RLU) ([6]; Detection Reagent Buffer): 10,017,520 RLU
- DSF Tm (° C.) [7]: 79 °C
- Km ([8]; BrightGlo): 0.466 µM
- Vmax (RLU) ([8]; BrightGlo): 23,226,184 RLU
- Km ([8]; Detection Reagent): 11 µM
- Vmax (RLU) ([8]; Detection Reagent): 12,592,733 RLU
- Km ([9]; BrightGlo Buffer): 0.667 µM
- Vmax (RLU) ([9]; BrightGlo Buffer): 18,332,536 RLU
- Km ([9]; Detection Reagent Buffer): 9.38 µM
- Vmax (RLU) ([9]; Detection Reagent Buffer): 9,350,431 RLU
- Vmax (RLU) D/L-luciferin BrightGlo Buffer ([10]; BrightGlo Buffer): 30,177,800 RLU
- Vmax (RLU) D/L-luciferin Detection Reagent Buffer ([10]; Detection Reagent Buffer): 17,201,600 RLU
- Vmax (RLU) CS0333 BrightGlo Buffer ([11]; BrightGlo Buffer): 862 RLU
- Vmax (RLU) CS0333 Detection Reagent Buffer ([11]; Detection Reagent Buffer): 724 RLU
- Vmax (RLU) CS0280 BrightGlo Buffer ([12]; BrightGlo Buffer): 3,689 RLU
- Vmax (RLU) CS0280 Detection Reagent Buffer ([12]; Detection Reagent Buffer): 394 RLU
- Km ([13]; BrightGlo Buffer): 1.03 µM
- Vmax (RLU) ([13]; BrightGlo Buffer): 14,958,892 RLU
- Km ([13]; Detection Reagent Buffer): 28.3 µM
- Vmax (RLU) ([13]; Detection Reagent Buffer): 5,686,042 RLU
- activity above background with CS0333 [3]: below background (inhibited)

B3: ATG3707: SEQ ID NO: 2; H244W+T344A+I396K+S193A+N228D+L305F+S306P+I109V (protein)
chain: MADKNILYGPEPFYPLEDGTAGEQMFDALSRYAAIPGCIALTNAHTKENVLYEEFLKLSCRLAESFKKYGLKQNDTIAVCSENSLQFFLPVIASLYLGIIVAPVNDKYVERELIHSLGIVKPRIVFCSKNTFQKVLNVKSKLKSIETIIILDLNEDLGGYQCLNNFISQNSDSNLDVKKFKPYSFNRDDQVAAIMFSSGTTGLPKGVMLTHKNIVARFSIAKDPTFGDAINPTSAILTVIPFHWGFGMMTTLGYFTCGFRVVLMHTFEEKLFLQSLQDYKVESTLLVPTLMAFLAKSALVEKYDFPHLKEIASGGAPLSKEIGEMVKKRFKLNFVRQGYGLTEATSAVLITPKGDAKPGSTGKIVPLHAVKVVDPTTGKILGPNEPGELYFKGPMKMKGYYNNEEATKAIIDNDGWLRSGDIAYYDNDGHFYIVDRLKSLIKYKGYQVAPAEIEGILLQHPYIVDAGVTGIPDEAAGELPAAGVVVQTGKYLNEQIVQDYVASQVSTAKWLRGGVKFLDEIPKGSTGKIDRKVLRQMLEKHTNGHHHHHHHH
- Km ([6]; BrightGlo Buffer): 0.03 µM
- Vmax (RLU) ([6]; BrightGlo Buffer): 2,033,235 RLU
- Km ([6]; CellTiterGlo buffer): 91.7 µM
- Vmax (RLU) ([6]; CellTiterGlo buffer): 4,840,502 RLU
- Km ([6]; Detection Reagent Buffer): 19.4 µM
- Vmax (RLU) ([6]; Detection Reagent Buffer): 4,499,483 RLU
- Km ([14]; BrightGlo Buffer): 0.539 µM
- Vmax (RLU) ([14]; BrightGlo Buffer): 3,724,104 RLU
- Km ([14]; Detection Reagent Buffer): 4.82 µM
- Vmax (RLU) ([14]; Detection Reagent Buffer): 5,458,906 RLU
- Luminescence (RLU) BrightGlo ([15]; BrightGlo buffer, 25° C., 3 min): 3887670 RLU
- Normalized Luminescence BrightGlo ([15]; BrightGlo buffer, normalized to ATG-3707): 1.00
- Luminescence (RLU) CellTiterGlo ([15]; CellTiterGlo buffer, 25° C., 3 min): 644571 RLU
- Normalized Luminescence CellTiterGlo ([15]; CellTiterGlo buffer, normalized to ATG-3707): 1.00
- Luminescence (RLU) Detection Reagent ([15]; Detection Reagent buffer, 25° C., 3 min): 5157310 RLU
- Normalized Luminescence Detection Reagent ([15]; Detection Reagent buffer, normalized to ATG-3707): 1.00
- Km ([16]; BrightGlo): 6.25 µM
- Vmax (RLU) ([16]; BrightGlo): 4,240,329 RLU
- Km ([16]; Detection Reagent): 113 µM
- Vmax (RLU) ([16]; Detection Reagent): 3,695,670 RLU
- Km ([8]; BrightGlo): 0.0272 µM
- Vmax (RLU) ([8]; BrightGlo): 2,596,835 RLU
- Km ([8]; Detection Reagent): 1.18 µM
- Vmax (RLU) ([8]; Detection Reagent): 6,820,106 RLU
- Km ([17]; BrightGlo): 4.53 µM
- Vmax (RLU) ([17]; BrightGlo): 5,791,823 RLU
- Km ([17]; Detection Reagent): 93.5 µM
- Vmax (RLU) ([17]; Detection Reagent): 4,706,312 RLU
- Km ([18]; BrightGlo): 3.61 µM
- Vmax (RLU) ([18]; BrightGlo): 828,567 RLU
- Km ([18]; Detection Reagent): 148 µM
- Vmax (RLU) ([18]; Detection Reagent): 42,242 RLU
- activity with CS0333 comparable to that of Ppe variant with luciferin ([19]; Bright-Glo and Detection Reagent buffers): ≤ 10 ×
- loss of performance with D/L-luciferin as compared to CS0333 ([19]; dimmer): about 1 log
